From US20210388110A1 (published 2021) come the findings set out here.

This test deals with T1, soluble human CD3ε chain (human, UniProt P07766 23-126, limits assumed).
T1 construct: the text says soluble human CD3ε chain; also called human CD3 epsilon chain
Description: SPR (Biacore).

T1 sequence (P07766 23-126 limits assumed): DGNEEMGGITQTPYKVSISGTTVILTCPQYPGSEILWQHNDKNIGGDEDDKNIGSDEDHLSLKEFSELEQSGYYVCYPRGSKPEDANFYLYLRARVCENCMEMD

B1: TR01H032-E22Hh/none-Hi-Kn010G3/L0000-k0 (antibody, human IgG1, kappa, L234A L235A, N297A)
heavy: QVQLVESGGGLVQPGRSLRLSCAASGFTFSNAWMHWVRQAPGKGLEWVAQIKSKSQNYATYYAESVKGRFTISRADSKNSIYLQMNSLKTEDTAVYYCRYVHYSASYGVDAWGQGTTVTVSSASTKGPSVFPLAPSSKSTSGGTAALGCLVKDYFPEPVTVSWNSGALTSGVHTFPAVLQSSGLYSLSSVVTVPSSSLGTQTYICNVNHKPSNTKVDKKVEPKSCDKTHTCPPCPAPEAAGGPSVFLFPPKPKDTLMISRTPEVTCVVVDVSHEDPEVKFNWYVDGVEVHNAKTKPREEQYASTYRVVSVLTVLHQDWLNGKEYKCKVSNKALPAPIEKTISKAKGQPREPQVYTLPPSRCELTKNQVSLSCAVKGFYPSDIAVEWESNGQPENNYKTTPPVLDSDGSFFLVSKLTVDKSRWQQGNVFSCSVMHEALHNHYTQKSLSLSPDYKDDDDK
chain: EPKSSDKTHTCPPCPAPELLGGPSVFLFPPKPKDTLMISRTPEVTCVVVDVSHEDPEVKFNWYVDGVEVHNAKTKPREEQYNSTYRVVSVLTVLHQDWLNGKEYKCKVSNKALPAPIEKTISKAKGQPREPQVCTLPPSRDELTKNQVSLWCLVKGFYPSDIAVEWESNGQPENNYKTTPPVLDSDGSFFLYSKLTVDKSRWQQGNVFSCSVMHEALHNRYTQKSLSLSP
light: DIVMTQSPLSLPVTPGEPASISCRSSQSLVHSNRNTYLHWYQQKPGQAPRLLIYKVSNRFSGVPDRFSGSGSGTDFTLKISRVEAEDVGVYYCGQGTQVPYTFGQGTKLEIKRTVAAPSVFIFPPSDEQLKSGTASVVCLLNNFYPREAKVQWKVDNALQSGNSQESVTEQDSKDSTYSLSSTLTLSKADYEKHKVYACEVTHQGLSSPVTKSFNRGEC
notes: single-arm
For the molecule B1, binding was put at a Kd of 57.3 nM.

B2: TR01H033-E22Hh/none-Hi-Kn010G3/L0000-k0 (antibody, human IgG1, kappa, L234A L235A, N297A)
heavy: QVQLVESGGGLVQPGRSLRLSCAASGFTFSNAWMHWVRQAPGKGLEWVAQIKSKSQNYATYYAESVKGRFTISRADSKNSIYLQMNSLKTEDTAVYYCRYVHYSASYGVDYWGQGTTVTVSSASTKGPSVFPLAPSSKSTSGGTAALGCLVKDYFPEPVTVSWNSGALTSGVHTFPAVLQSSGLYSLSSVVTVPSSSLGTQTYICNVNHKPSNTKVDKKVEPKSCDKTHTCPPCPAPEAAGGPSVFLFPPKPKDTLMISRTPEVTCVVVDVSHEDPEVKFNWYVDGVEVHNAKTKPREEQYASTYRVVSVLTVLHQDWLNGKEYKCKVSNKALPAPIEKTISKAKGQPREPQVYTLPPSRCELTKNQVSLSCAVKGFYPSDIAVEWESNGQPENNYKTTPPVLDSDGSFFLVSKLTVDKSRWQQGNVFSCSVMHEALHNHYTQKSLSLSPDYKDDDDK
chain: EPKSSDKTHTCPPCPAPELLGGPSVFLFPPKPKDTLMISRTPEVTCVVVDVSHEDPEVKFNWYVDGVEVHNAKTKPREEQYNSTYRVVSVLTVLHQDWLNGKEYKCKVSNKALPAPIEKTISKAKGQPREPQVCTLPPSRDELTKNQVSLWCLVKGFYPSDIAVEWESNGQPENNYKTTPPVLDSDGSFFLYSKLTVDKSRWQQGNVFSCSVMHEALHNRYTQKSLSLSP
light: DIVMTQSPLSLPVTPGEPASISCRSSQSLVHSNRNTYLHWYQQKPGQAPRLLIYKVSNRFSGVPDRFSGSGSGTDFTLKISRVEAEDVGVYYCGQGTQVPYTFGQGTKLEIKRTVAAPSVFIFPPSDEQLKSGTASVVCLLNNFYPREAKVQWKVDNALQSGNSQESVTEQDSKDSTYSLSSTLTLSKADYEKHKVYACEVTHQGLSSPVTKSFNRGEC
notes: single-arm
The molecule B2 showed a Kd of 48.8 nM.

B3: TR01H036-E22Hh/none-Hi-Kn010G3/L0000-k0 (antibody, human IgG1, kappa, L234A L235A, N297A)
heavy: QVQLVESGGGLVQPGRSLRLSCAASGFTFSNAWMHWVRQAPGKGLEWVAQIKGKSNNYATYYAESVKGRFTISRADSKNSIYLQMNSLKTEDTAVYYCRYVHYSASYGVDYWGQGTTVTVSSASTKGPSVFPLAPSSKSTSGGTAALGCLVKDYFPEPVTVSWNSGALTSGVHTFPAVLQSSGLYSLSSVVTVPSSSLGTQTYICNVNHKPSNTKVDKKVEPKSCDKTHTCPPCPAPEAAGGPSVFLFPPKPKDTLMISRTPEVTCVVVDVSHEDPEVKFNWYVDGVEVHNAKTKPREEQYASTYRVVSVLTVLHQDWLNGKEYKCKVSNKALPAPIEKTISKAKGQPREPQVYTLPPSRCELTKNQVSLSCAVKGFYPSDIAVEWESNGQPENNYKTTPPVLDSDGSFFLVSKLTVDKSRWQQGNVFSCSVMHEALHNHYTQKSLSLSPDYKDDDDK
chain: EPKSSDKTHTCPPCPAPELLGGPSVFLFPPKPKDTLMISRTPEVTCVVVDVSHEDPEVKFNWYVDGVEVHNAKTKPREEQYNSTYRVVSVLTVLHQDWLNGKEYKCKVSNKALPAPIEKTISKAKGQPREPQVCTLPPSRDELTKNQVSLWCLVKGFYPSDIAVEWESNGQPENNYKTTPPVLDSDGSFFLYSKLTVDKSRWQQGNVFSCSVMHEALHNRYTQKSLSLSP
light: DIVMTQSPLSLPVTPGEPASISCRSSQSLVHSNRNTYLHWYQQKPGQAPRLLIYKVSNRFSGVPDRFSGSGSGTDFTLKISRVEAEDVGVYYCGQGTQVPYTFGQGTKLEIKRTVAAPSVFIFPPSDEQLKSGTASVVCLLNNFYPREAKVQWKVDNALQSGNSQESVTEQDSKDSTYSLSSTLTLSKADYEKHKVYACEVTHQGLSSPVTKSFNRGEC
notes: single-arm
B3: binding was characterised by a dissociation constant (Kd) of 65 nM. This Kd and that of the molecule before are within 1.5-fold of each other.

B4: TR01H038-E22Hh/none-Hi-Kn010G3/L0000-k0 (antibody, human IgG1, kappa, L234A L235A, N297A)
heavy: QVQLVESGGGLVQPGRSLRLSCAASGFTFSNAWMHWVRQAPGKGLEWVAQIKDKSNNYATYYAESVKGRFTISRADSKNSIYLQMNSLKTEDTAVYYCRYVHYSASYGVDIWGQGTTVTVSSASTKGPSVFPLAPSSKSTSGGTAALGCLVKDYFPEPVTVSWNSGALTSGVHTFPAVLQSSGLYSLSSVVTVPSSSLGTQTYICNVNHKPSNTKVDKKVEPKSCDKTHTCPPCPAPEAAGGPSVFLFPPKPKDTLMISRTPEVTCVVVDVSHEDPEVKFNWYVDGVEVHNAKTKPREEQYASTYRVVSVLTVLHQDWLNGKEYKCKVSNKALPAPIEKTISKAKGQPREPQVYTLPPSRCELTKNQVSLSCAVKGFYPSDIAVEWESNGQPENNYKTTPPVLDSDGSFFLVSKLTVDKSRWQQGNVFSCSVMHEALHNHYTQKSLSLSPDYKDDDDK
chain: EPKSSDKTHTCPPCPAPELLGGPSVFLFPPKPKDTLMISRTPEVTCVVVDVSHEDPEVKFNWYVDGVEVHNAKTKPREEQYNSTYRVVSVLTVLHQDWLNGKEYKCKVSNKALPAPIEKTISKAKGQPREPQVCTLPPSRDELTKNQVSLWCLVKGFYPSDIAVEWESNGQPENNYKTTPPVLDSDGSFFLYSKLTVDKSRWQQGNVFSCSVMHEALHNRYTQKSLSLSP
light: DIVMTQSPLSLPVTPGEPASISCRSSQSLVHSNRNTYLHWYQQKPGQAPRLLIYKVSNRFSGVPDRFSGSGSGTDFTLKISRVEAEDVGVYYCGQGTQVPYTFGQGTKLEIKRTVAAPSVFIFPPSDEQLKSGTASVVCLLNNFYPREAKVQWKVDNALQSGNSQESVTEQDSKDSTYSLSSTLTLSKADYEKHKVYACEVTHQGLSSPVTKSFNRGEC
notes: single-arm
Consider B4, for which the Kd worked out at 12.4 nM. Against the preceding molecule, the Kd is about 5.2-fold lower.

B5: TR01H039-E22Hh/none-Hi-Kn010G3/L0000-k0 (antibody, human IgG1, kappa, L234A L235A, N297A)
heavy: QVQLVESGGGLVQPGRSLRLSCAASGFTFSNAWMHWVRQAPGKGLEWVAQIKDKSQNYATYYAESVKGRFTISRADSKNSIYLQMNSLKTEDTAVYYCRYVHYSASYGVDIWGQGTTVTVSSASTKGPSVFPLAPSSKSTSGGTAALGCLVKDYFPEPVTVSWNSGALTSGVHTFPAVLQSSGLYSLSSVVTVPSSSLGTQTYICNVNHKPSNTKVDKKVEPKSCDKTHTCPPCPAPEAAGGPSVFLFPPKPKDTLMISRTPEVTCVVVDVSHEDPEVKFNWYVDGVEVHNAKTKPREEQYASTYRVVSVLTVLHQDWLNGKEYKCKVSNKALPAPIEKTISKAKGQPREPQVYTLPPSRCELTKNQVSLSCAVKGFYPSDIAVEWESNGQPENNYKTTPPVLDSDGSFFLVSKLTVDKSRWQQGNVFSCSVMHEALHNHYTQKSLSLSPDYKDDDDK
chain: EPKSSDKTHTCPPCPAPELLGGPSVFLFPPKPKDTLMISRTPEVTCVVVDVSHEDPEVKFNWYVDGVEVHNAKTKPREEQYNSTYRVVSVLTVLHQDWLNGKEYKCKVSNKALPAPIEKTISKAKGQPREPQVCTLPPSRDELTKNQVSLWCLVKGFYPSDIAVEWESNGQPENNYKTTPPVLDSDGSFFLYSKLTVDKSRWQQGNVFSCSVMHEALHNRYTQKSLSLSP
light: DIVMTQSPLSLPVTPGEPASISCRSSQSLVHSNRNTYLHWYQQKPGQAPRLLIYKVSNRFSGVPDRFSGSGSGTDFTLKISRVEAEDVGVYYCGQGTQVPYTFGQGTKLEIKRTVAAPSVFIFPPSDEQLKSGTASVVCLLNNFYPREAKVQWKVDNALQSGNSQESVTEQDSKDSTYSLSSTLTLSKADYEKHKVYACEVTHQGLSSPVTKSFNRGEC
notes: single-arm
The molecule B5 gave a Kd of 26.1 nM.

B6: TR01H037-E22Hh/none-Hi-Kn010G3/L0000-k0 (antibody, human IgG1, kappa, L234A L235A, N297A)
heavy: QVQLVESGGGLVQPGRSLRLSCAASGFTFSNAWMPWVRQAPGKGLEWVAQIKGKSNNYATYYAESVKGRFTISRADSKNSIYLQMNSLKTEDTAVYYCRYVHYSASYGVDIWGQGTTVTVSSASTKGPSVFPLAPSSKSTSGGTAALGCLVKDYFPEPVTVSWNSGALTSGVHTFPAVLQSSGLYSLSSVVTVPSSSLGTQTYICNVNHKPSNTKVDKKVEPKSCDKTHTCPPCPAPEAAGGPSVFLFPPKPKDTLMISRTPEVTCVVVDVSHEDPEVKFNWYVDGVEVHNAKTKPREEQYASTYRVVSVLTVLHQDWLNGKEYKCKVSNKALPAPIEKTISKAKGQPREPQVYTLPPSRCELTKNQVSLSCAVKGFYPSDIAVEWESNGQPENNYKTTPPVLDSDGSFFLVSKLTVDKSRWQQGNVFSCSVMHEALHNHYTQKSLSLSPDYKDDDDK
chain: EPKSSDKTHTCPPCPAPELLGGPSVFLFPPKPKDTLMISRTPEVTCVVVDVSHEDPEVKFNWYVDGVEVHNAKTKPREEQYNSTYRVVSVLTVLHQDWLNGKEYKCKVSNKALPAPIEKTISKAKGQPREPQVCTLPPSRDELTKNQVSLWCLVKGFYPSDIAVEWESNGQPENNYKTTPPVLDSDGSFFLYSKLTVDKSRWQQGNVFSCSVMHEALHNRYTQKSLSLSP
light: DIVMTQSPLSLPVTPGEPASISCRSSQSLVHSNRNTYLHWYQQKPGQAPRLLIYKVSNRFSGVPDRFSGSGSGTDFTLKISRVEAEDVGVYYCGQGTQVPYTFGQGTKLEIKRTVAAPSVFIFPPSDEQLKSGTASVVCLLNNFYPREAKVQWKVDNALQSGNSQESVTEQDSKDSTYSLSSTLTLSKADYEKHKVYACEVTHQGLSSPVTKSFNRGEC
notes: single-arm
The molecule B6 returned a Kd of 6.93 nM.
